In patent publication US20240076389A1 (NATIONAL RESEARCH COUNCIL OF CANADA, published 2024):

T1: recombinant human AXL extracellular domain, C-terminally His8-tagged (rhAXL-ECD) (human, UniProt P30530 26-451)
T1 construct: Made in CHO cells; also called (rh)AXL-ECD His8; human AXL ECD
T1 sequence: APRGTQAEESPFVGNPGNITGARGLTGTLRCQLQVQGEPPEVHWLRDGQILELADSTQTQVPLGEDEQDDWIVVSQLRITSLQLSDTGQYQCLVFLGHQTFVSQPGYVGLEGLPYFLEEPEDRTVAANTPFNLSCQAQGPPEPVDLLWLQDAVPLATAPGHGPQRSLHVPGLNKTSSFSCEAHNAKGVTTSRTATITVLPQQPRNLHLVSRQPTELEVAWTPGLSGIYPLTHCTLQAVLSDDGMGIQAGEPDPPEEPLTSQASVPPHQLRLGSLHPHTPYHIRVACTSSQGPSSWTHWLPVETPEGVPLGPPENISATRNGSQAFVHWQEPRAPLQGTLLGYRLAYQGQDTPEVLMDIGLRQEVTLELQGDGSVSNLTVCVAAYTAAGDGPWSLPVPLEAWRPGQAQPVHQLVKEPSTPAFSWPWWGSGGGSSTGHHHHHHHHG

T2: human AXL expressed on the cell surface of tumor cell lines (human, UniProt P30530 26-894)
T2 construct: whole, on cells; also called cell surface-expressed AXL; cell-based AXL
T2 sequence (looked up): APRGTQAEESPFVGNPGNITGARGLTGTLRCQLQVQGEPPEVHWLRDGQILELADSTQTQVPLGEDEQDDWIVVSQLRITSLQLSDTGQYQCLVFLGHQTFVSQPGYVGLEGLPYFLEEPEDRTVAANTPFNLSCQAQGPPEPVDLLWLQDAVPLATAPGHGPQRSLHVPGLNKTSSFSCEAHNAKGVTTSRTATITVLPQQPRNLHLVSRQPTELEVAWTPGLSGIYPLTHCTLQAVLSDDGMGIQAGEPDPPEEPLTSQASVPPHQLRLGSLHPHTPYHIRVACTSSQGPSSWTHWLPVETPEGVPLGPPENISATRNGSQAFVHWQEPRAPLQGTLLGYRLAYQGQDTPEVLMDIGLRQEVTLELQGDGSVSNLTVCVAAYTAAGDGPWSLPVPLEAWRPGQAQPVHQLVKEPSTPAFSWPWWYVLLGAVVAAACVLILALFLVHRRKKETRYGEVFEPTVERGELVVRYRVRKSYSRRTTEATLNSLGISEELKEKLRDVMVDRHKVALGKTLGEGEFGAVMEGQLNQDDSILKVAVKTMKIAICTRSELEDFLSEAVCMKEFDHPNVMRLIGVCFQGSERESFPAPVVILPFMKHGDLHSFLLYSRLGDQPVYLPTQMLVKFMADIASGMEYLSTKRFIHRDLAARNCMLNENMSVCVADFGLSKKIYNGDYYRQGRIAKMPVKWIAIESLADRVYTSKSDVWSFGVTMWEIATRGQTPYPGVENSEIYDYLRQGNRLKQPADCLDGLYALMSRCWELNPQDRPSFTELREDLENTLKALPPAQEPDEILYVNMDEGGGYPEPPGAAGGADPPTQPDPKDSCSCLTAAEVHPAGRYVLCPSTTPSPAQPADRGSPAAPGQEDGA

B1: NRC-sdAb001-Fc (VHH-human IgG1 Fc fusion) (Fc fusion)
chain: QVKLEESGGGLVQAGGSLRLSCTASASISSFDIMGWYRQAPGKQRELVAAITTLDIANYRDSVKGRFTISRDNAKNTVYLQMDSLKPEDTARYHCAAFQSDQNYWGQGTQVTVSS
notes: VHH fused N-terminally to human IgG1 Fc, made in HEK293 cells; also called NRC-sdAb0001-Fc; NRC-sdAb001-hIgG1; not shown: human IgG1 Fc
B2: hFC-F107-10G1 (antibody, human IgG1, kappa, V domains shown)
VH: EVNLVESGGGVVKPGASLKLSCEASGFTFSNYGMSWVRQTSDKRLEWVASISGGGGRTYYLDNVKGRFIISRENAKNTLYLQMSSLKSEDTALFYCARGARASYFAMDYWGQGSSVTVSS
VL: VIVMTQSHKFMSTSVGDRVSITCKASQDVTTAVAWYQQKPGQSPKLLIYWASTRHTGVPDRFTGSGSGTDYSLTISNVQTEDLAFYYCQQHFTTPLTFGAGTKLELKR
notes: Chimeric mAb, human IgG1 / human kappa constant regions; also called mAb F107-10G1

Assays:
[1] = target: T1, recombinant human AXL extracellular …; assay: SPR, VHH-Fc captured, AXL ECD flowed, single-concentration kinetics (estimate)
Experimental: (§1) For VH Hs and VHH-Fcs, binding to human and cynomolgus AXL ECD was assessed using either a Biacore T200 instrument or a Biacore 3000 instrument. Either human AXL ECD or anti-human Fc antibody was immobilized on a research-grade CM5 series S sensor chip (T200, rhAXL ECD) or a C1 sensor chip (3000, anti-human Fc) using amine coupling in acetate buffer. VHH-Fcs were captured on anti-human Fc surfaces. Either monomeric VHHs (for rhAXL ECD surfaces) or human and cyno AXL ECD (for VHH-Fc surfaces) were flowed over the surfaces at different concentration ranges. Running buffers were HBS-EP (3000) and HBS-EP+(T200). Flow rates were 10-40 ul/min. All binding studies were performed at 25° C. Surfaces were regenerated using 10 mM glycine, pH 1.5.

[2] = target: T3, recombinant cynomolgus AXL extracellular domain (cynomolgus); assay: as above
T3 construct: range 1-449; also called Cyno AXL; cyno AXL ECD
Experimental: as §1

[3] = target: T2, human AXL expressed on the cell surface …; assay: FACS on MDA-MB-231 luciferase cells, apparent Kd, human Fc format
Experimental: (§2) FACS binding assay. Adherent cells were dissociated with non-enzymatic Sigma Cell Dissociation Solution (Cat. No. C5789). Cells suspensions were added to polypropylene, V-bottom 96-well plates and incubated for 2 hours on ice with primary antibodies at concentrations ranging from 100 nM to 0.001 nM or at a single dose of 100 nM (for the non-specific control). After incubation and washes, cells were incubated with fluorescently labeled secondary antibody (Alexa Fluor® 488 anti-human IgG from Jackson Cat. No 709-546-098) for 1 hour on ice, then washed. Cell viability was determined using Fixable viability dye 450 (20 min on ice). Stained cells were fixed in 1% formaldehyde at 4° C. and stored at 4° C. until acquisition which was performed the next day.
(§3) Binding of recombinant chimeric Abs to three cell lines was assessed by FACS as described above. The apparent Bmax and Kd determination is shown below in Table 14.

[4] = target: T2, human AXL expressed on the cell surface …; assay: FACS on SKOV3 cells, apparent Kd, human Fc format
Experimental: as §2, §3

[5] = target: T2, human AXL expressed on the cell surface …; assay: FACS on SKOV3 cells, apparent Kd
Experimental: as §2, §3

[6] = target: T2, human AXL expressed on the cell surface …; assay: FACS on MDA-MB-231 luciferase cells, apparent Kd
Experimental: as §2, §3

[7] = target: T1, recombinant human AXL extracellular …; assay: SPR Biacore T200, mAb captured on anti-Fc, AXL ECD flowed (footnote b printed in a row of footnote a)
Experimental: Surface plasmon resonance. For murine mAbs, binding to human and cynomolgus AXL ECD was assessed using a Biacore T200 instrument. Briefly, either anti-mouse or anti-human Fc antibody was immobilized on a research-grade CM5 series S sensor chip using amine coupling in acetate buffer. Murine or recombinant chimeric murine-human mAbs (mouse VH/VL; human constant regions) were captured, then recombinant human or cyno AXL ECD was flowed over the surface at different concentration ranges (0.1-500 nM) depending on the antibody. The running buffer was PBS/Tween-20 and the flow rate 100 uL/min. All binding studies were performed at 25° C. Surfaces were regenerated using 10 mM glycine, pH 1.5.

Row | Binder | Kd [1] [pM] | koff [1] [s⁻¹] | kon [1] [M⁻¹ s⁻¹] | Kd [2] [pM] | koff [2] [s⁻¹] | kon [2] [M⁻¹ s⁻¹] | Kd [3] [pM] | Kd [4] [pM] | Kd [5] [pM] | Kd [6] [pM] | koff [7] [s⁻¹]
1 | B1 | 6000 | 0.0072 | 1.3e+06 | 8000 | 0.0072 | 920000 | 233 | 112 | – | – | –
2 | B2 | – | – | – | – | – | – | – | – | 60.8 | 101 | 0.00059
